Data on eight substances can be found in the supplement of paper PMC5998384.

The test system of data set [1] is HeLa Kyoto. Description: thermal stability score vs G1/S (z-score of summed log2 fold changes over temperatures); higher = more thermally stable than in G1/S.
Data set [2] concerns HeLa Kyoto. Description: solubility change mitosis vs G1/S (difference of NP-40 vs SDS log2 ratios) (log2 ratio difference); higher = more soluble in mitosis.
The subject of data set [3] is HeLa Kyoto. As to the kind of experiment: solubility in G1/S (NP-40 vs SDS abundance) (log2 ratio); higher = more soluble. The note with it: cell cycle stage: G1/S.
The mark [4] stands for this setting: cell cycle stage: early G1 (4.5 h after nocodazole release).
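For solubility change mitosis vs G1/S (difference of NP-40 vs SDS log2 ratios) in this document: synchronized HeLa Kyoto cells (double thymidine block for G1/S, nocodazole release for mitosis), protein amounts in NP-40 versus SDS lysates quantified by mass spectrometry, three biological replicates.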
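For solubility in G1/S (NP-40 vs SDS abundance) in this document: HeLa Kyoto cells arrested at G1/S by double thymidine block, proteins quantified by TMT10plex mass spectrometry in mild NP-40 versus SDS extracts, three biological replicates.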
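For thermal stability score vs G1/S (z-score of summed log2 fold changes over temperatures) in this document: synchronized HeLa Kyoto cells, proteins quantified by TMT10plex mass spectrometry, three biological replicates, mitosis taken 0.5 h after nocodazole release, G1/S directly after double thymidine block.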

Turning to “MERGKMAEAESLETAAEHERILREIESTDTACIGPTLRSVYDGEEHGRFMEKLETRIRNHDREIEKMCNFHYQGFVDSITELLKVRGEAQKLKNQVTDTNRKLQHEGKELVIAMEELKQCRLQQRNISATVDKLMLCLPVLEMYSKLRDQMKTKRHYPALKTLEHLEHTYLPQVSHYRFCKVMVDNIPKLREEIKDVSMSDLKDFLESIRKHSDKIGETAMKQAQQQRNLDNIVLQQPRIGSKRKSKKDAYIIFDTEIESTSPKSEQDSGILDVEDEEDDEEVPGAQDLVDFSPVYRCLHIYSVLGARETFENYYRKQRRKQARLVLQPPSNMHETLDGYRKYFNQIVGFFVVEDHILHTTQGLVNRAYIDELWEMALSKTIAALRTHSSYCSDPNLVLDLKNLIVLFADTLQVYGFPVNQLFDMLLEIRDQYSETLLKKWAGIFRNILDSDNYSPIPVTSEEMYKKVVGQFPFQDIELEKQPFPKKFPFSEFVPKVYNQIKEFIYACLKFSEDLHLSSTEVDDMIRKSTNLLLTRTLSNSLQNVIKRKNIGLTELVQIIINTTHLEKSCKYLEEFITNITNVLPETVHTTKLYGTTTFKDARHAAEEEIYTNLNQKIDQFLQLADYDWMTGDLGNKASDYLVDLIAFLRSTFAVFTHLPGKVAQTACMSACKHLATSLMQLLLEAEVRQLTLGALQQFNLDVRECEQFARSGPVPGFQEDTLQLAFIDLRQLLDLFIQWDWSTYLADYGQPNCKYLRVNPVTALTLLEKMKDTSRKNNMFAQFRKNERDKQKLIDTVAKQLRGLISSHHS [EXOC6B]”, the thermal stability score in the data set with HeLa Kyoto [1] (setting [4]) came to 0.0917; with HeLa Kyoto [1] (cell cycle stage: mitosis), 0.56. In addition, the “solubility change mitosis (log2)” value in the data set on HeLa Kyoto [2] was -0.0208. In addition, in the data set with HeLa Kyoto [3], the “solubility in G1/S (log2)” value was -0.17.
For “MKLVNIWLLLLVVLLCGKKHLGDRLEKKSFEKAPCPGCSHLTLKVEFSSTVVEYEYIVAFNGYFTAKARNSFISSALKSSEVDNWRIIPRNNPSSDYPSDFEVIQIKEKQKAGLLTLEDHPNIKRVTPQRKVFRSLKYAESDPTVPCNETRWSQKWQSSRPLRRASLSLGSGFWHATGRHSSRRLLRAIPRQVAQTLQADVLWQMGYTGANVRVAVFDTGLSEKHPHFKNVKERTNWTNERTLDDGLGHGTFVAGVIASMRECQGFAPDAELHIFRVFTNNQVSYTSWFLDAFNYAILKKIDVLNLSIGGPDFMDHPFVDKVWELTANNVIMVSAIGNDGPLYGTLNNPADQMDVIGVGGIDFEDNIARFSSRGMTTWELPGGYGRMKPDIVTYGAGVRGSGVKGGCRALSGTSVASPVVAGAVTLLVSTVQKRELVNPASMKQALIASARRLPGVNMFEQGHGKLDLLRAYQILNSYKPQASLSPSYIDLTECPYMWPYCSQPIYYGGMPTVVNVTILNGMGVTGRIVDKPDWQPYLPQNGDNIEVAFSYSSVLWPWSGYLAISISVTKKAASWEGIAQGHVMITVASPAETESKNGAEQTSTVKLPIKVKIIPTPPRSKRVLWDQYHNLRYPPGYFPRDNLRMKNDPLDWNGDHIHTNFRDMYQHLRSMGYFVEVLGAPFTCFDASQYGTLLMVDSEEEYFPEEIAKLRRDVDNGLSLVIFSDWYNTSVMRKVKFYDENTRQWWMPDTGGANIPALNELLSVWNMGFSDGLYEGEFTLANHDMYYASGCSIAKFPEDGVVITQTFKDQGLEVLKQETAVVENVPILGLYQIPAEGGGRIVLYGDSNCLDDSHRQKDCFWLLDALLQYTSYGVTPPSLSHSGNRQRPPSGAGSVTPERMEGNHLHRYSKVLEAHLGDPKPRPLPACPRLSWAKPQPLNETAPSNLWKHQKLLSIDLDKVVLPNFRSNRPQVRPLSPGESGAWDIPGGIMPGRYNQEVGQTIPVFAFLGAMVVLAFFVVQINKAKSRPKRRKPRVKRPQLMQQVHPPKTPSV [MBTPS1]”, in that order: -1.77, -1.37, -0.198 and 0.0339.
Regarding “MSSMWSEYTIGGVKIYFPYKAYPSQLAMMNSILRGLNSKQHCLLESPTGSGKSLALLCSALAWQQSLSGKPADEGVSEKAEVQLSCCCACHSKDFTNNDMNQGTSRHFNYPSTPPSERNGTSSTCQDSPEKTTLAAKLSAKKQASIYRDENDDFQVEKKRIRPLETTQQIRKRHCFGTEVHNLDAKVDSGKTVKLNSPLEKINSFSPQKPPGHCSRCCCSTKQGNSQESSNTIKKDHTGKSKIPKIYFGTRTHKQIAQITRELRRTAYSGVPMTILSSRDHTCVHPEVVGNFNRNEKCMELLDGKNGKSCYFYHGVHKISDQHTLQTFQGMCKAWDIEELVSLGKKLKACPYYTARELIQDADIIFCPYNYLLDAQIRESMDLNLKEQVVILDEAHNIEDCARESASYSVTEVQLRFARDELDSMVNNNIRKKDHEPLRAVCCSLINWLEANAEYLVERDYESACKIWSGNEMLLTLHKMGITTATFPILQGHFSAVLQKEEKISPIYGKEEAREVPVISASTQIMLKGLFMVLDYLFRQNSRFADDYKIAIQQTYSWTNQIDISDKNGLLVLPKNKKRSRQKTAVHVLNFWCLNPAVAFSDINGKVQTIVLTSGTLSPMKSFSSELGVTFTIQLEANHIIKNSQVWVGTIGSGPKGRNLCATFQNTETFEFQDEVGALLLSVCQTVSQGILCFLPSYKLLEKLKERWLSTGLWHNLELVKTVIVEPQGGEKTNFDELLQVYYDAIKYKGEKDGALLVAVCRGKVSEGLDFSDDNARAVITIGIPFPNVKDLQVELKRQYNDHHSKLRGLLPGRQWYEIQAYRALNQALGRCIRHRNDWGALILVDDRFRNNPSRYISGLSKWVRQQIQHHSTFESALESLAEFSKKHQKVLNVSIKDRTNIQDNESTLEVTSLKYSTSPYLLEAASHLSPENFVEDEAKICVQELQCPKIITKNSPLPSSIISRKEKNDPVFLEEAGKAEKIVISRSTSPTFNKQTKRVSWSSFNSLGQYFTGKIPKATPELGSSENSASSPPRFKTEKMESKTVLPFTDKCESSNLTVNTSFGSCPQSETIISSLKIDATLTRKNHSEHPLCSEEALDPDIELSLVSEEDKQSTSNRDFETEAEDESIYFTPELYDPEDTDEEKNDLAETDRGNRLANNSDCILAKDLFEIRTIKEVDSAREVKAEDCIDTKLNGILHIEESKIDDIDGNVKTTWINELELGKTHEIEIKNFKPSPSKNKGMFPGFK [BRIP1]”, the thermal stability score turned out to be 0.36 in the data set on HeLa Kyoto [1] (setting [4]) and 1.88 with HeLa Kyoto [1] (cell cycle stage: mitosis). For the same substance, the “solubility change mitosis (log2)” value with HeLa Kyoto [2] was -0.00076. Moreover, the “solubility in G1/S (log2)” value in the data set on HeLa Kyoto [3] was -0.0862.
For “MTSAAEIKKPPVAPKPKFVVANNKPAPPPIAPKPDIVISSVPQSTKKMKPAIAPKPKVLKTSPVREIGQSPSRKIMLNLEGHKQELAESTDNFNCKYEGNQSNDYISPMCSCSSECIHKLGHRENLCVKQLVLEPLEMNENLENSKIDETLTIKTRSKCDLYGEKAKNQGGVVLKASVLEEELKDALIHQMPPFISAQKHRPTDSPEMNGGCNSNGQFRIEFADLSPSPSSFEKVPDHHSCHLQLPSDECEHFETCQDDSEKSNNCFQSSELEALENGKRSTLISSDGVSKKSEVKDLGPLEIHLVPYTPKFPTPKPRKTRTARLLRQKCVDTPSESTEEPGNSDSSSSCLTENSLKINKISVLHQNVLCKQEQVDKMKLGNKSELNMESNSDAQDLVNSQKAMCNETTSFEKMAPSFDKDSNLSSDSTTVDGSSMSLAVDEGTGFIRCTVSMSLPKQLKLTCNEHLQSGRNLGVSAPQMQKESVIKEENSLRIVPKKPQRHSLPATGVLKKAASEELLEKSSYPSSEEKSSEKSLERNHLQHLCAQNRGVSSSFDMPKRASEKPVWKLPHPILPFSGNPEFLKSVTVSSNSEPSTALTKPRAKSLSAMDVEKCTKPCKDSTKKNSFKKLLSMKLSICFMKSDFQKFWSKSSQLGDTTTGHLSSGEQKGIESDWQGLLVGEEKRSKPIKAYSTENYSLESQKKRKKSRGQTSAANGLRAESLDDQMLSRESSSQAPYKSVTSLCAPEYENIRHYEEIPEYENLPFIMAIRKTQELEWQNSSSMEDADANVYEVEEPYEAPDGQLQLGPRHQHSSSGASQEEQNDLGLGDLPSDEEEIINSSDEDDVSSESSKGEPDPLEDKQDEDNGMKSKVHHIAKEIMSSEKVFVDVLKLLHIDFRDAVAHASRQLGKPVIEDRILNQILYYLPQLYELNRDLLKELEERMLHWTEQQRIADIFVKKGPYLKMYSTYIKEFDKNIALLDEQCKKNPGFAAVVREFEMSPRCANLALKHYLLKPVQRIPQYRLLLTDYLKNLIEDAGDYRDTQDALAVVIEVANHANDTMKQGDNFQKLMQIQYSLNGHHEIVQPGRVFLKEGILMKLSRKVMQPRMFFLFNDALLYTTPVQSGMYKLNNMLSLAGMKVRKPTQEAYQNELKIESVERSFILSASSATERDEWLEAISRAIEEYAKKRITFCPSRSLDEADSENKEEVSPLGSKAPIWIPDTRATMCMICTSEFTLTWRRHHCRACGKIVCQACSSNKYGLDYLKNQPARVCEHCFQELQKLDHQHSPRIGSPGNHKSPSSALSSVLHSIPSGRKQKKIPAALKEVSANTEDSSMSGYLYRSKGNKKPWKHFWFVIKNKVLYTYAASEDVAALESQPLLGFTVIQVKDENSESKVFQLLHKNMLFYVFKAEDAHSAQKWIEAFQEGTIL [FGD6]”, in that order: -0.173, 0.213, 0.03 and -0.0552.
“MEEELQHSHCVNCVSRRCMTRPEPGISCDLIGCPLVCGAVFHSCKADEHRLLCPFERVPCLNSDFGCPFTMARNKVAEHLEMCPASVVCCTMEWNRWPVSYADRKSYENLSRDVDEVAQLDMALALQDQRMLLESLKVATMMSKATDKVSKPREQISVKSSVPEIPHANGLVSVDEESYGALYQATVETTRSLAAALDILNTATRDIGMLNTSVPNDMDEQQNARESLEDQNLKDQDHLYEEEIGAVGGIDYNDTNQNAQSEQNGSSDLLCDLNTSSYDTSALCNGFPLENICTQVIDQNQNLHGDSKQSNLTNGDCVASSDGTSKPSSSLAVAAQLREIIPSSALPNGTVQHILMPDDEGEGELCWKKVDLGDVKNVDVLSFSHAPSFNFLSNSCWSKPKEDKAVDTSDLEVAEDPMGLQGIDLITAALLFCLGDSPGGRGISDSRMADIYHIDVGTQTFSLPSAILATSTMVGEIASASACDHANPQLSNPSPFQTLGLDLVLECVARYQPKQRSMFTFVCGQLFRRKEFSSHFKNVHGDIHAGLNGWMEQRCPLAYYGCTYSQRRFCPSIQGAKIIHDRHLRSFGVQPCVSTVLVEPARNCVLGLHNDHLSSLPFEVLQHIAGFLDGFSLCQLSCVSKLMRDVCGSLLQSRGMVILQWGKRKYPEGNSSWQIKEKVWRFSTAFCSVNEWKFADILSMADHLKKCSYNVVEKREEAIPLPCMCVTRELTKEGRSLRSVLKPVL [FBXO30]”: the thermal stability score is 0.306 in the data set with HeLa Kyoto [1] (setting [4]) and 1.03 in the data set on HeLa Kyoto [1] (cell cycle stage: mitosis). Moreover, the “solubility change mitosis (log2)” value in the data set with HeLa Kyoto [2] is 0.106. In addition, the “solubility in G1/S (log2)” value with HeLa Kyoto [3] was -0.564.
For PPL, in that order: -0.748, 1.36, 0.304 and -0.342.
In the case of “MPLELTQSRVQKIWVPVDHRPSLPRSCGPKLTNSPTVIVMVGLPARGKTYISKKLTRYLNWIGVPTKVFNVGEYRREAVKQYSSYNFFRPDNEEAMKVRKQCALAALRDVKSYLAKEGGQIAVFDATNTTRERRHMILHFAKENDFKAFFIESVCDDPTVVASNIMEVKISSPDYKDCNSAEAMDDFMKRISCYEASYQPLDPDKCDRDLSLIKVIDVGRRFLVNRVQDHIQSRIVYYLMNIHVQPRTIYLCRHGENEHNLQGRIGGDSGLSSRGKKFASALSKFVEEQNLKDLRVWTSQLKSTIQTAEALRLPYEQWKALNEIDAGVCEELTYEEIRDTYPEEYALREQDKYYYRYPTGESYQDLVQRLEPVIMELERQENVLVICHQAVLRCLLAYFLDKSAEEMPYLKCPLHTVLKLTPVAYGCRVESIYLNVESVCTHRERSEDAKKGPNPLMRRNSVTPLASPEPTKKPRINSFEEHVASTSAALPSCLPPEVPTQLPGQNMKGSRSSADSSRKH [PFKFB3]”, the thermal stability score with HeLa Kyoto [1] (setting [4]) was determined as 2.73; in the data set with HeLa Kyoto [1] (cell cycle stage: mitosis) it was 0.713. Further, the “solubility change mitosis (log2)” value with HeLa Kyoto [2] was -0.103. The “solubility in G1/S (log2)” value in the data set with HeLa Kyoto [3] amounted to 0.239.
For “MKLKLKNVFLAYFLVSIAGLLYALVQLGQPCDCLPPLRAAAEQLRQKDLRISQLQAELRRPPPAPAQPPEPEALPTIYVVTPTYARLVQKAELVRLSQTLSLVPRLHWLLVEDAEGPTPLVSGLLAASGLLFTHLVVLTPKAQRLREGEPGWVHPRGVEQRNKALDWLRGRGGAVGGEKDPPPPGTQGVVYFADDDNTYSRELFEEMRWTRGVSVWPVGLVGGLRFEGPQVQDGRVVGFHTAWEPSRPFPVDMAGFAVALPLLLDKPNAQFDSTAPRGHLESSLLSHLVDPKDLEPRAANCTRVLVWHTRTEKPKMKQEEQLQRQGRGSDPAIEV [B3GAT3]”, in that order: -0.256, -0.376, -0.044 and 0.166.
